Experimental data reported in the supplement of paper PMC10567573.
± gives the standard deviation.

Assay: protein stability index of a GFP-peptide fusion (GPS, HEK-293T) (PSI 1-6); higher = more stable
Settings: c terminus: a fixed tail appended
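Further: 24-mer peptide tiles fused after GFP, lentivirally expressed, FACS-sorted into six equal bins by GFP/DsRed ratio, decoded by Illumina sequencing, PSI is the read-weighted mean bin number.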

Sequence	protein stability index (treatment: DMSO)	protein stability index (treatment: MLN4924 1 uM, 8 h)
HDIVRFLVQLDDYRFASAGDDGIV [WDR41]	2.21 ± 0.061	2.2 ± 0.25
HDRNMDWVSTQLQATCNVHKSAFN [FADS1]	3.22 ± 0.29	3.46 ± 0.2
HELGHVFNMLHDNSKPCISLNGPL [ADAMTS4]	3 ± 0.49	2.93 ± 0.28
HFAEEERSKYDYLMILRRVVNEST [TENT5C]	2.55 ± 0.26	2.86 ± 0.37
HGHLILHSMHKYQPRIHLVRAAQL [TBX6]	2.1 ± 0.29	2.07 ± 0.27
HGNQSAGEDQAFGDWLLTANGSEI [SLC22A15]	4.56 ± 0.34	4.67 ± 0.18
HHFNSSHLEIDDMYTPAYGDFDFD [MYORG]	4.34 ± 0.11	4.23 ± 0.24
HHGGDYKHWREWGSHAQTSQIQSI [CRYBA1]	3.1 ± 0.14	3.19 ± 0.26
HLEDWLEKRAKRLSSAPSSRAEPI [ZMAT5]	4.26 ± 0.78	3.58 ± 0.081
HMVRESKIMEAESQKATRECEKSA [FAN1]	5.29 ± 0.3	5.24 ± 0.14
HPDSWRAYPFYWAWLPQAKVPFSQ [PI4K2A]	2.5 ± 0.37	2.02 ± 0.94
HPVFYQGTYSQALNDAKRELRFLL [FAF2]	2.26 ± 0.36	2.15 ± 0.14
HRERVAMHYQMSVTLKYEIKKLIY [JAGN1]	2.71 ± 0.49	2.92 ± 0.45
HRGLLTMQLKSPMPSSTTQKDSYQ [SPAG8]	3.87 ± 0.25	4 ± 0.21
HRQSFGTNSDVLAQQFALMAPLLF [DCAF4]	2.31 ± 0.28	2.36 ± 0.27
HRRELESSGAGSSPPAAPCPPPPG [ZBED3]	5.12 ± 0.29	5.24 ± 0.16
HTEDFQKEEGTVNGASWHTVAGSL [CPXM2]	4.63 ± 0.069	4.76 ± 0.38
HTHRAHTVVPLDDATQEYKEKLQK [TRIM39]	5.39 ± 0.2	5.3 ± 0.35
HTTLQCLAARVIVNHRIYYKGHIP [FEM1C]	2.43 ± 0.17	2.43 ± 0.25
HVGWLLVRKHPAVKEKGSTLDLSD [SCD]	2.3 ± 0.26	2.48 ± 0.45
IAATELEKEESRREAEKQNYLAEH [TNNI2]	5.3 ± 0.25	5.37 ± 0.26
IAELLEVFDLRMMVANILNNEAFM [RHOBTB2]	3.36 ± 0.2	2.98 ± 0.55

Sequence	protein stability index (treatment: DMSO)	protein stability index (treatment: MLN4924 1 uM, 8 h)
ICQKTATKKRKTFDSSRQRAEGTD [ZC2HC1A]	4.8 ± 0.1	4.67 ± 0.53
ICSLICLLIYTVKIRRFNKAKPEP [TMEM192]	2.24 ± 0.52	2.44 ± 0.63
IDEVRTQYEEIALKSKAEAEALYQ [KRT71]	4.77 ± 0.29	5.01 ± 0.26
IDVEALQVAFGSLYRDDVLIKPSR [GMCL1]	2.37 ± 0.16	2.48 ± 0.37
IEELEREAERKIIEENITSAAPSN [SRPK2]	5.34 ± 0.15	5.17 ± 0.25
IEETYSKAMAKLSKLASNGTPMGT [FCHO1]	3.4 ± 0.073	3.78 ± 0.29
IEKEYQPHVIVSTTGPNPFTTLTD [ADD1]	3.74 ± 0.25	3.9 ± 0.23
IERLTREVEATRRALIDRMVNLHQ [DDIT3]	2.45 ± 0.18	2.61 ± 0.24
IFMGYQNVEDEAETKKVLGLQDTI [PALM]	3.27 ± 0.26	3.35 ± 0.3
IFNVAIPRFHMACPTFRVSIARLE [FBXO3]	2.19 ± 0.57	2.2 ± 0.47
IHGLPTEGYQALYHAVVEPMLWNP [C22orf31]	2.19 ± 0.11	2.13 ± 0.21
IIDNTNLHAWEMKPYAVMVFQTEQ [N4BP2L1]	2.15 ± 0.25	2.09 ± 0.18
IILTNQSVREVTQIKCIELKSELG [P2RY14]	2.14 ± 0.23	2.27 ± 0.19
IISAHIHPVCSLCWSRDGHKLVSA [RBBP5]	2.45 ± 0.37	2.14 ± 0.24
IIWFSFELVVRFFACPSKTDFFKN [KCNA1]	2.88 ± 0.37	3.04 ± 0.36
IKENAQDTMRQINKKGFWSYGPVI [TOR1AIP2]	2.51 ± 0.45	2.52 ± 0.26
IKKPESFSKQIVLRGKSIKRAPGE [NEUROD6]	3.9 ± 0.12	4 ± 0.22
IKPSENHYSLLTSQPLDREATSHY [PCDHGC5]	3.87 ± 0.062	3.93 ± 0.38
ILENRPPGSLLCTVAASDPDTGDN [PCDHGC5]	4.99 ± 0.12	5.06 ± 0.13
ILLQDHIRDLDVVVVSVAGAFRKG [ATL3]	2.94 ± 0.34	2.57 ± 0.68
ILRSQLVTLLVRGVCYSESQSSAS [CLCN6]	2.88 ± 0.38	2.95 ± 0.39
ILSLEGGYNLRALAEGVSASLHTL [HDAC6]	2.15 ± 0.79	2.12 ± 0.39

Sequence	protein stability index (treatment: DMSO)	protein stability index (treatment: MLN4924 1 uM, 8 h)
ILTERVSLPFKPFAIILPILLNIR [MIA2]	2.25 ± 0.55	3.79 ± 0.64
IPSEEWPNPPTLQEAGLSHTEVLF [FAF2]	3.8 ± 0.23	3.81 ± 0.21
IQELELQAQIHGLPVPPTPGLLSL [TFE3]	2.62 ± 0.22	2.56 ± 0.28
IQQTTRYFSTPQTMDLFLNYSMNM [NANOGP8]	2.7 ± 0.48	2.58 ± 0.58
IRERATIEETYSKAMAKLSKLASN [FCHO1]	3.02 ± 0.19	2.91 ± 0.3
IRKLVAEKLNIPWNHIRLQRTAKG [AASDHPPT]	2.31 ± 0.27	2.44 ± 0.33
IRSMDPSALASDRFNLILADTNSD [DCAF4]	4 ± 0.14	3.85 ± 0.11
IRVWFQNKRCKDKKKSILMKQLQQ [ISL2]	2.08 ± 0.26	2.17 ± 0.23
ISDALIRRVHLTEDQWGKGTLTPR [TRIM9]	2.92 ± 0.14	3.11 ± 0.41
ISDNSISWSAGLHNRYTENSLRGV [FUT8]	2.87 ± 0.29	2.87 ± 0.15
ISHRSTVASCMHRQETVDCLKKFN [CAMK2A]	3.23 ± 0.077	3.14 ± 0.11
ISLRVYRKVLQAVHRGDGANPFQA [RTN2]	2.59 ± 0.46	2.2 ± 0.32
ISVLQQQGSLSNTYLSKVDPDGKK [FBXO33]	4.45 ± 0.18	4.46 ± 0.2
ITAFYNEARARARANRGILQQERQ [DNAJC4]	3.4 ± 0.5	3.81 ± 0.36
ITLSQEQIQKYTDCLQFYVNSTLK [RTN1]	2.08 ± 0.1	2.1 ± 0.086
ITTKTADGKCAYRASYSDGKLKAP [MLH1]	3.78 ± 0.2	3.67 ± 0.12
ITVAELREAVPALLGEPLAGPELD [CABP4]	3.7 ± 0.39	3.84 ± 0.44
IVEKRVLAHLAPLFDNPKLDKELR [INTS3]	2.13 ± 0.2	2.13 ± 0.37
IVRFLESNWFVWVTQMNHIPMHID [FADS1]	3.08 ± 0.95	3.1 ± 1
IWAKTPPITRKAAQLYTLWVTFQV [DHCR7]	3.3 ± 0.52	2.81 ± 0.6
IWFIVPISCVICNDIMAYMFGFFF [CDS2]	3.19 ± 0.25	3.11 ± 0.61
